# Assay results taken from paper PMC8162121 (Nature cell biology, 2021).
# B1: unlabeled NOP56, purified recombinant (natural protein, human, UniProt O00567 1-594, looked up)
# chain: MVLLHVLFEHAVGYALLALKEVEEISLLQPQVEESVLNLGKFHSIVRLVAFCPFASSQVALENANAVSEGVVHEDLRLLLETHLPSKKKKVLLGVGDPKIGAAIQEELGYNCQTGGVIAEILRGVRLHFHNLVKGLTDLSACKAQLGLGHSYSRAKVKFNVNRVDNMIIQSISLLDQLDKDINTFSMRVREWYGYHFPELVKIINDNATYCRLAQFIGNRRELNEDKLEKLEELTMDGAKAKAILDASRSSMGMDISAIDLINIESFSSRVVSLSEYRQSLHTYLRSKMSQVAPSLSALIGEAVGARLIAHAGSLTNLAKYPASTVQILGAEKALFRALKTRGNTPKYGLIFHSTFIGRAAAKNKGRISRYLANKCSIASRIDCFSEVPTSVFGEKLREQVEERLSFYETGEIPRKNLDVMKEAMVQAEEAAAEITRKLEKQEKKRLKKEKKRLAALALASSENSSSTPEECEEMSEKPKKKKKQKPQEVPQENGMEDPSISFSKPKKKKSFSKEELMSSDLEETAGSTSIPKRKKSTPKEETVNDPEEAGHRSGSKKKRKFSKEEPVSSGPEEAVGKSSSKKKKKFHKASQED
# B2: unlabeled FBL, purified recombinant (natural protein, human, UniProt P22087 1-321, looked up)
# chain: MKPGFSPRGGGFGGRGGFGDRGGRGGRGGFGGGRGRGGGFRGRGRGGGGGGGGGGGGGRGGGGFHSGGNRGRGRGGKRGNQSGKNVMVEPHRHEGVFICRGKEDALVTKNLVPGESVYGEKRVSISEGDDKIEYRAWNPFRSKLAAAILGGVDQIHIKPGAKVLYLGAASGTTVSHVSDIVGPDGLVYAVEFSHRSGRDLINLAKKRTNIIPVIEDARHPHKYRMLIAMVDVIFADVAQPDQTRIVALNAHTFLRNGGHFVISIKANCIDSTASAEAVFASEVKKMQQENMKPQEQLTLEPYERDHAVVVGVYRPPPKVKN
# How the values were obtained:
# [1] = molecular target: Flag-tagged EZH2, purified recombinant (human, UniProt Q15910 1-746); assay: AlphaScreen or HTRF
# Chain of Flag-tagged EZH2, purified recombinant (Q15910 whole entry): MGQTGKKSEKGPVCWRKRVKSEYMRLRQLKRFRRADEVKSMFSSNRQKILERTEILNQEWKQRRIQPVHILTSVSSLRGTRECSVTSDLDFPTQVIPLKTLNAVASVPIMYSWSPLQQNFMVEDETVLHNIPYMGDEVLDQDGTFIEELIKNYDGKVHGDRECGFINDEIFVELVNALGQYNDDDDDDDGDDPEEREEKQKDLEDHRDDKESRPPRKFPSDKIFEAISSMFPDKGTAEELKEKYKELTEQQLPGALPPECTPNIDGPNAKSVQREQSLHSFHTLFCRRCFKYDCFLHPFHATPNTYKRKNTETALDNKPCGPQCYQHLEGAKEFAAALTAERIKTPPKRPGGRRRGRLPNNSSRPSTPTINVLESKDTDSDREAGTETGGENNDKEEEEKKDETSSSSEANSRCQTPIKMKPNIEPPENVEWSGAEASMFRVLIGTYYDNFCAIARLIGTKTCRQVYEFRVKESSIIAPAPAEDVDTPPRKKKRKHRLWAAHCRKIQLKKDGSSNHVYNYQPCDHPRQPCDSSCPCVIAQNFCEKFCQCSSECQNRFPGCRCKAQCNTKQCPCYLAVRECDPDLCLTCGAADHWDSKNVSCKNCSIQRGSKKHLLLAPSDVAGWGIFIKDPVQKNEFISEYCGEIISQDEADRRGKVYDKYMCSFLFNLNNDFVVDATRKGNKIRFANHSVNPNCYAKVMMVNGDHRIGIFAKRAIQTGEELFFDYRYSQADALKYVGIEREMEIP
# [2] = molecular target: GST-tagged EZH2, purified recombinant (human, UniProt Q15910 1-746); assay: AlphaScreen or HTRF
# Chain of GST-tagged EZH2, purified recombinant (Q15910 whole entry): as above
Binder,Kd [1],Kd [2]
B1,43.6 nM,–
B2,–,842 nM
